{
  "source": "the nanobody polyreactivity screen of Harvey et al. (2022)",
  "data": [
    {"assay": "yeast display, Sf9 membrane polyspecificity reagent, FACS + sequencing; frameworks hold sequencing errors", "procedure,_shortened": "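Polyreactivity labels are assigned by the sorting gate from which each nanobody was recovered. The gates were low and high (top ~1%), set on anti-HA fluorescence for expression and streptavidin fluorescence for reagent binding. Before sorting, galactose-induced (36–48 hours) yeast display cells were stained for 1 hour at 4 °C with 10% biotinylated, detergent-solubilized Sf9 membrane reagent.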", "values": [
      {"sequence": "QVQLEESGGGLVQAGGSLRLCCAASGFTFDYNAKGWYRQPPGKLRDLVAVISSSGSRTYYADSVKGRFTISRDYAKNTVYLQMNSLKPEDSAVYYWAGARIGTSDYWGQGTQVTESS", "polyreactivity (PSR sort gate)": "high polyreactivity"},
      {"sequence": "QVQLVESGGRLVQAGGSLRLSCAASGLIFRRNAMGWYRQAPGKERELVSAISRSSGSTYYADSVKGRFTISRDYAKNSVYFHMNSLKPDDTAVYYCDAGYRAGPGYGMYSWGQGTQVTVSS", "polyreactivity (PSR sort gate)": "high polyreactivity"},
      {"sequence": "QVKLLESGGGLVQAGGSLRLTCAASGSTFPPYAMGWYRQAPGTESELVAAISYRDTGTYYADSVKGRFTISRDNAKYTVYLQMNSLKPEDTAVYYCATLGYFSASRTDYDYWGQGTQVTVSS", "polyreactivity (PSR sort gate)": "low polyreactivity"},
      {"sequence": "QVHLVESGGGLVQAGGSLRLSCAASGRIFKDNAMGWYRQAPGKERELVATIDSGGDTNYADSVKGRFTISRDNAKNTVYLQMNSLKPEDTAVYYCNTEGFLSAVYAFGYWGQGTQVTVSS", "polyreactivity (PSR sort gate)": "low polyreactivity"},
      {"sequence": "QVQLVESGGGLVQAGGSLRLSCAASGSIFAPYVMGWYRQAPGKERELVAAITESGGRTYYADSVKGRFTISRDNAKNTVYLQMNSLKPEDTAVYYCAARTYDRNRQLRRQWYDYWGQGTQVTVSS", "polyreactivity (PSR sort gate)": "high polyreactivity"},
      {"sequence": "QVQLVESGGGLVQAGGRLRLSCAASGRTFFQYAMGWYRQAPGKERELVAAIRCSDSTYYADSVKGRFTISRDNAKNTVYLQMNSLKPEDTAVYYCAVRAYREFLPIVYKWWWERDHWGQGTQVTVSS", "polyreactivity (PSR sort gate)": "low polyreactivity"},
      {"sequence": "QVQLVESGGGIVQAGGSLRLSCDASGRIIGYYAMGWYRQAPGKERELVAAISRSGARTYYADSVKGRFTISRDNAKNTVYLQMNSLKPEDTAVYYCAAGPAPGHDSWGQGTQVTVSS", "polyreactivity (PSR sort gate)": "high polyreactivity"},
      {"sequence": "QVQLVESGGGLVQAGGSLRLSCAASGSTFYTYALGWYRQAPGKERELDAAITYNGGSTYYADSVKGRFTISRDNAKNTVYLQMNSLKPEDTAVYYCARTIYLGSRVNGYWRYDYWGQGTQVTVSS", "polyreactivity (PSR sort gate)": "high polyreactivity"},
      {"sequence": "QVQLVESGGGLVQAGGILRVSCAASGSTFRRYAMGWSRQAPGKERELVAAIRQRGTSTYYADSVKGRFTISRDNAKNTVYLQMNSLKPEDTAVYYCAAGPSLWLFNSWGQGTQVTVSS", "polyreactivity (PSR sort gate)": "high polyreactivity"},
      {"sequence": "QVQLVESGGGLVQAGGSLRLSCAASGSTFRFYAMGWYRQAPGKERELVAAISKSGGITYYADSVKGRFTISRDNAKNTVYLQMNSLKPEDTAVYSCATVGLLSNFYARFNYWGQGTQVTVSS", "polyreactivity (PSR sort gate)": "high polyreactivity"},
      {"sequence": "QVQLVESGGGLVQAGGSLRLSCAASGSTFGRNAMGWYRQAPGKERELVAASNWSDGSTHYADSVKGRFTISRDNAKNTVYLQMNSLKPEDTAVYYCAADAWSWPVDYNYWGQGTQVTVSS", "polyreactivity (PSR sort gate)": "low polyreactivity"},
      {"sequence": "QVQLVESGGGLVQAGGSLRLSCAASGGTYELYVMGWYRQAPGKERELVAAISVNGDDTYYADSVKGRITISRDNAKNTVYLQMNSLKPEDTAVYYCAAEVLGSYYLTGYDYWGQGTQVTVSS", "polyreactivity (PSR sort gate)": "high polyreactivity"},
      {"sequence": "QVQLVESGGGLVQAGGSLRLSSAASGSIFRSNAMGWYRQAHGKERELVAAITSGTRTYYADSVKGRFTISRDNAKNTVYLQMNSLKPEDTAVFYCATKGSKYVRGYWGQGTQVTVSS", "polyreactivity (PSR sort gate)": "high polyreactivity"},
      {"sequence": "QVQLVESGGGLVQAGGSLRLSCAASGFILVGYAMGWYRKAPGKERELVAAISSGDSTNYADSVKGRFTISRDNAKNSVYLQMNSLKPEDTAVYYCAARFIFWVYDYDYWGQGTQVTLSS", "polyreactivity (PSR sort gate)": "low polyreactivity"},
      {"sequence": "QVQLVESGGGLVQAGGSLRLSCAASGSIFIPYTMGWYRQEPGKARELVAAITKRGGSTYYADSVKGRFTISRDNAKNSVYLQMNSLKPEDTAVYYCNAIKYDPGRWAEYGYWGQGTQVTVSS", "polyreactivity (PSR sort gate)": "high polyreactivity"},
      {"sequence": "QVQLVESGGALVQAGGSLRLSCAASGFIFYSYAMGWYRHAPGKETELVAAITEDGDSTYYADSVKGRFTISRDNAKNTVYLQMNSLKPEDSAVYYCNTDLTFNGTSGDYDYWGQGTLVTVSS", "polyreactivity (PSR sort gate)": "low polyreactivity"},
      {"sequence": "QVQLVESGGGLVQAGASLRLSCAGSGLIFTTYAMGWYRQAAGKERELVADINSDGSTYYADSVKGRFTISRDNAKNTVYLQMNSLKPEDTAVYYCAKDYVHQYGVYKVWANNYNYWGQGTQVTVSS", "polyreactivity (PSR sort gate)": "low polyreactivity"},
      {"sequence": "QVQLVETGVGLVQAGGSLRLSSAASGSIFFTYTMGRYRQAPGKERELVATITYGGGGTYYADSVKGRFTISRDNAKNTVYLQMNSLKAEDTAVYYCAKDHATVLSRWYRGMDYWGQGTQVTVSS", "polyreactivity (PSR sort gate)": "low polyreactivity"},
      {"sequence": "QVQLVESGGGLVQAGGSLRLSCAASGRIFKNYAKGWYRQAPGKERELVAAISWSGGRTYYSDSVKGRFTISRDNAKNTVYLQMNSLKPEYTAVYYCAARFRRTRVTYYYWGQGTQVTVSS", "polyreactivity (PSR sort gate)": "high polyreactivity"},
      {"sequence": "QVQLVESGGGLVQAGGSLRLSCAASGYIFKTYDMGWYRQAPGKETELVAAITASGGSTSYADSVKGRFTISRDNAKNTVYLQMNSLKPEDTAVYYCAAVYVRFKAERGVYLYPYDYWGQGTQVTVSS", "polyreactivity (PSR sort gate)": "high polyreactivity"},
      {"sequence": "QVQLVESGGGLVQAGGSLRLSCAASGSTFVRYAMGWYRQAPGKERELVAAIRWSSGSTYYADSVKGRFTISRDNAKNTVYLQMNSLKPEDTAVYYCAKRQYLYTSKYDYWGQGTQVTVSS", "polyreactivity (PSR sort gate)": "high polyreactivity"},
      {"sequence": "QVQLVESGGGLVQAGGSLRLSCASSGRTIYGSTKGWYRQAPGKESELGAAIRRSGGSTYYADSVKGRFTISRDNAKNTVYFQMNRLNPEDTAVYYCAASWRDIYRHYNVYPYDYWGQGTQVTVSS", "polyreactivity (PSR sort gate)": "low polyreactivity"},
      {"sequence": "QVQLVESGGGVVQAGGSLRLSCAASGFTFARYTMGWYRPAPGKERELVAAISSRGSSTYYADSVKGRFTISRDNAKNTVYLQMNSLKPEDTAVYYCAKAYYTPYGVYVLHYYWGQGTQVTVSS", "polyreactivity (PSR sort gate)": "high polyreactivity"},
      {"sequence": "QVQLEESGGGIVQAGGSLRLSCAASGSTFRKYAMRWYRQAPGKERDFVAAITWSTGTTYYADSVKGRFTISRDNAKNTVYLQMNSLKPEDTAVYFCAADSQPPHELYESIEHESWGQGTQVTVSS", "polyreactivity (PSR sort gate)": "low polyreactivity"},
      {"sequence": "QVQHVESGGGLVQAGGSLRLSCAASGRTFFENAMGWYRQAPGKEMELVAAISWDGGTTYADSVKGRFSISRDNAKNTVYLQMNSLKPEDTAVYYCNAEVRSNDARGDNDYCGQGTQVTVSS", "polyreactivity (PSR sort gate)": "low polyreactivity"},
      {"sequence": "QVQLVESGGGLVQAGGSLRLSCAASGSTNGRNAIGWSRQAPRKERELVAAISSGGSTSYADSVKVRFTISRDNAKYTDYLQMNSLKPVDTAVYYCAAQSVGSQYDYWGQGTQVTVSS", "polyreactivity (PSR sort gate)": "low polyreactivity"},
      {"sequence": "QVQLVESGGGLVQAGGSLRLSCAASGRIFRSYAMGWYRQAPGKERELVAAMTWGGGRTYYADSVKGRFTISRDNAKNTVYLQMNSLKPEDTAVYYCNTLAYPYYRGSKYDYWGQGTQVTVSS", "polyreactivity (PSR sort gate)": "high polyreactivity"},
      {"sequence": "QVQLVESGGGLVQAGGSLRLSCAASGRILEGYAMGWYRQAPGKEELVAAITSDASTYYADSVKGRFTMSRDNAKNTVYLQINSLKPEDTAVYYCAADTYDNDYYYWGQGTLVTVSS", "polyreactivity (PSR sort gate)": "high polyreactivity"},
      {"sequence": "QVQLEESGGGLVQAGGSLRLSCAASGSTFDVYAMGWYRQAPGKERELVAAISRSGGSTYYADSVKGRFTISRDTAKTTVYLQMNSLQPEDTAVYYCNARLARWGSYEYNYWGQGTQVTVSS", "polyreactivity (PSR sort gate)": "low polyreactivity"},
      {"sequence": "QVQLVDSGGGLVQAGGSLRLSCDASGSIFYPYALGCYIQAPGKERELVAAITTSGGSTYYADSVKGRFTISRDNAKNTVYLQMNSLKPEATAVYYCSASYYSDIWPYSVYDLEFYWGQGTQVTVSS", "polyreactivity (PSR sort gate)": "high polyreactivity"},
      {"sequence": "QVQLVESGGGLVQAGGSLRLSCAASGRTFYYNTMGWYRQAPGKERELVAAITSRGSTYADSVKGRFTISRDNAKNTVYLQMNSLKPEDTAVYYCAAVWRYGSWYSGRLYEYWGQGTQVTVSS", "polyreactivity (PSR sort gate)": "high polyreactivity"}
    ]}
  ]
}
